Our source for the OD450 Values values is patent publication US20180072815A1.

The test deals with commercially available anti-Stat3 antibody (Abcam). Description: ELISA, antibody coated directly at 1 µg/mL. (In an ELISA, binding on a coated surface is turned into a signal by an enzyme label.)

For the substance his-probe (H-3) biotin labeled antibody, the OD450 Values was 0.018 OD450.
